{"source": "the supplement of paper PMC10065799", "about": "“High-throughput profiling of sequence recognition by tyrosine kinases and SH2 domains using bacterial peptide display” (eLife, 2023);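 note: 11-residue human phosphosite peptides and single-mutation variants displayed on the E. coli surface, counted by deep sequencing, each peptide's frequency after selection divided by its frequency in the unselected input library; frequency after pTyr selection over input frequency; kinase dosed for 20-30% of maximal phosphorylation in three min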", "data": [{"test_system": "c-Src", "test": "phosphorylation enrichment, bacterial display (enrichment ratio); higher = better substrate or ligand; peptides without Tyr show the background", "values": [{"sequence": "FSDPDYLAAVD [GLB1_Y154_S149F]", "phosphorylation enrichment": 0.381}, {"sequence": "TLRETYGEMAD [ALB_Y108]", "phosphorylation enrichment": 0.702}, {"sequence": "RSRSSYTHSLN [MYCT1_Y116_G119S]", "phosphorylation enrichment": 0.938}, {"sequence": "DQLVKHGVNPG [TMPO_Y127_Y127H]", "phosphorylation enrichment": 0.346}, {"sequence": "LVPPRYARSEI [PKP2_Y194]", "phosphorylation enrichment": 0.394}, {"sequence": "STGSRYQPLAS [NCAPD2_Y1325]", "phosphorylation enrichment": 0.423}, {"sequence": "EREYKYDAHNY [OAT_Y50_G51D]", "phosphorylation enrichment": 0.367}, {"sequence": "PHMQTYEVDLN [SDHB_Y61]", "phosphorylation enrichment": 1.04}, {"sequence": "EILTQYEAMAS [GFAP_Y242_R239L]", "phosphorylation enrichment": 0.503}, {"sequence": "LITSVYGCSRQ [TMPRSS6_Y290]", "phosphorylation enrichment": 1.7}, {"sequence": "GRVYVYHLSEQ [ITGAE_Y551_R552H]", "phosphorylation enrichment": 0.799}, {"sequence": "CGTPDYIDPEI [PRKCG_Y521_A523D]", "phosphorylation enrichment": 0.481}, {"sequence": "SKGFAYVHFDS [PABPC5_Y149_YF]", "phosphorylation enrichment": 0.314}, {"sequence": "QLCVSYPGGFT [PROS1_Y259_N258S_YF]", "phosphorylation enrichment": 0.658}, {"sequence": "WRPFGYPCRRR [BCS1L_Y181_R183C]", "phosphorylation enrichment": 0.517}, {"sequence": "SGDDGYAKDAQ [TENM4_Y1530_K1535Q]", "phosphorylation enrichment": 0.379}, {"sequence": "ALWFIYSHTRS [ENG_Y614_YF]", "phosphorylation enrichment": 0.379}, {"sequence": "SGADSYEMEED [EGFR_Y316_C311S]", "phosphorylation enrichment": 0.561}, {"sequence": "NFFDTYIKTCL [IQGAP2_Y1445_YF]", "phosphorylation enrichment": 0.54}, {"sequence": "PYYTSYPPSPD [GDAP2_Y491]", "phosphorylation enrichment": 6.44}, {"sequence": "CTTIRYNFMCN [TP53_Y234_H233R_YF]", "phosphorylation enrichment": 0.372}, {"sequence": "LAAAGYDVEKN [H1-3_Y72]", "phosphorylation enrichment": 0.365}, {"sequence": "AKNKDYMSFIR [GNE_Y197_I200F]", "phosphorylation enrichment": 0.972}, {"sequence": "SLIERYEPSET [PLCD1_Y258]", "phosphorylation enrichment": 0.497}, {"sequence": "KSEFAYEIFDK [MYOM2_Y1024_L1022F]", "phosphorylation enrichment": 2.1}, {"sequence": "ELSDGYWVVSN [TPP1_Y459_A454E]", "phosphorylation enrichment": 0.588}, {"sequence": "DVCKNYAKAKD [ALB_Y343_E345K]", "phosphorylation enrichment": 0.4}, {"sequence": "GDEAIYATVAG [NRTKtide_2018]", "phosphorylation enrichment": 7.59}, {"sequence": "RFLRGYRQFAF [HLA-A_Y137_D140Y_YF]", "phosphorylation enrichment": 0.76}]}, {"target": "FGFR1 (UniProt P11362)", "sequence (P11362 whole entry, looked up)": "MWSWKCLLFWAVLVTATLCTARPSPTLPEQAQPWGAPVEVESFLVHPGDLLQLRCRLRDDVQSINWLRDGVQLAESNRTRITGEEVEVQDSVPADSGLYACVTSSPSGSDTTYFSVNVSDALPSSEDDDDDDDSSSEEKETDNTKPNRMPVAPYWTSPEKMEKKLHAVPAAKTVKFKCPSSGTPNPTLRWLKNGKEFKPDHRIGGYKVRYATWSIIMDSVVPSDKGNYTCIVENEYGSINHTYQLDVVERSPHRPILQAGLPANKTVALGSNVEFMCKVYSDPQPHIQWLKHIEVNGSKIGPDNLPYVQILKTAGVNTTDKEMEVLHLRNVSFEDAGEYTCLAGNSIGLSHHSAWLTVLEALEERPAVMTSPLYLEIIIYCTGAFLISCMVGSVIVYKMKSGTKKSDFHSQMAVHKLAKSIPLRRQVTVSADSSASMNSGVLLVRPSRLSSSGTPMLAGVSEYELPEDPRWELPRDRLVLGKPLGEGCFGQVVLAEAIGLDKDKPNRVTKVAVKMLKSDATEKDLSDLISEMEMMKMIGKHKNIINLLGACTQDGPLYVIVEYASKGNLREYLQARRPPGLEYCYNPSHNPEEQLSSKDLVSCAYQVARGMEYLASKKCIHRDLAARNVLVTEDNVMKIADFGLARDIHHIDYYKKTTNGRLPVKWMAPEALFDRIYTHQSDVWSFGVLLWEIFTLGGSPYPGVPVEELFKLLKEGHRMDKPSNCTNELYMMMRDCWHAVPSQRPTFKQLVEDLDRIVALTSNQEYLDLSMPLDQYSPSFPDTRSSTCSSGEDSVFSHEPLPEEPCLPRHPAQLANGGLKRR", "test": "phosphorylation enrichment, bacterial display (enrichment ratio); higher = better substrate or ligand; peptides without Tyr show the background", "values": [{"sequence": "FSDPDYLAAVD [GLB1_Y154_S149F]", "phosphorylation enrichment": 0.479}, {"sequence": "TLRETYGEMAD [ALB_Y108]", "phosphorylation enrichment": 0.519}, {"sequence": "RSRSSYTHSLN [MYCT1_Y116_G119S]", "phosphorylation enrichment": 0.575}, {"sequence": "DQLVKHGVNPG [TMPO_Y127_Y127H]", "phosphorylation enrichment": 0.329}, {"sequence": "LVPPRYARSEI [PKP2_Y194]", "phosphorylation enrichment": 0.74}, {"sequence": "STGSRYQPLAS [NCAPD2_Y1325]", "phosphorylation enrichment": 0.42}, {"sequence": "EREYKYDAHNY [OAT_Y50_G51D]", "phosphorylation enrichment": 0.445}, {"sequence": "PHMQTYEVDLN [SDHB_Y61]", "phosphorylation enrichment": 0.61}, {"sequence": "EILTQYEAMAS [GFAP_Y242_R239L]", "phosphorylation enrichment": 0.485}, {"sequence": "LITSVYGCSRQ [TMPRSS6_Y290]", "phosphorylation enrichment": 1.04}, {"sequence": "GRVYVYHLSEQ [ITGAE_Y551_R552H]", "phosphorylation enrichment": 0.559}, {"sequence": "CGTPDYIDPEI [PRKCG_Y521_A523D]", "phosphorylation enrichment": 2.28}, {"sequence": "SKGFAYVHFDS [PABPC5_Y149_YF]", "phosphorylation enrichment": 0.393}, {"sequence": "QLCVSYPGGFT [PROS1_Y259_N258S_YF]", "phosphorylation enrichment": 0.496}, {"sequence": "WRPFGYPCRRR [BCS1L_Y181_R183C]", "phosphorylation enrichment": 0.496}, {"sequence": "SGDDGYAKDAQ [TENM4_Y1530_K1535Q]", "phosphorylation enrichment": 0.45}, {"sequence": "ALWFIYSHTRS [ENG_Y614_YF]", "phosphorylation enrichment": 0.44}, {"sequence": "SGADSYEMEED [EGFR_Y316_C311S]", "phosphorylation enrichment": 0.822}, {"sequence": "NFFDTYIKTCL [IQGAP2_Y1445_YF]", "phosphorylation enrichment": 0.508}, {"sequence": "PYYTSYPPSPD [GDAP2_Y491]", "phosphorylation enrichment": 4.8}, {"sequence": "CTTIRYNFMCN [TP53_Y234_H233R_YF]", "phosphorylation enrichment": 0.434}, {"sequence": "LAAAGYDVEKN [H1-3_Y72]", "phosphorylation enrichment": 0.51}, {"sequence": "AKNKDYMSFIR [GNE_Y197_I200F]", "phosphorylation enrichment": 0.478}, {"sequence": "SLIERYEPSET [PLCD1_Y258]", "phosphorylation enrichment": 0.661}, {"sequence": "KSEFAYEIFDK [MYOM2_Y1024_L1022F]", "phosphorylation enrichment": 0.564}, {"sequence": "ELSDGYWVVSN [TPP1_Y459_A454E]", "phosphorylation enrichment": 1.3}, {"sequence": "DVCKNYAKAKD [ALB_Y343_E345K]", "phosphorylation enrichment": 0.409}, {"sequence": "GDEAIYATVAG [NRTKtide_2018]", "phosphorylation enrichment": 3.87}, {"sequence": "RFLRGYRQFAF [HLA-A_Y137_D140Y_YF]", "phosphorylation enrichment": 0.643}]}, {"test_system": "Fer (mouse)", "test": "phosphorylation enrichment, bacterial display (enrichment ratio); higher = better substrate or ligand; peptides without Tyr show the background", "values": [{"sequence": "FSDPDYLAAVD [GLB1_Y154_S149F]", "phosphorylation enrichment": 0.475}, {"sequence": "TLRETYGEMAD [ALB_Y108]", "phosphorylation enrichment": 0.446}, {"sequence": "RSRSSYTHSLN [MYCT1_Y116_G119S]", "phosphorylation enrichment": 0.381}, {"sequence": "DQLVKHGVNPG [TMPO_Y127_Y127H]", "phosphorylation enrichment": 0.284}, {"sequence": "LVPPRYARSEI [PKP2_Y194]", "phosphorylation enrichment": 0.697}, {"sequence": "STGSRYQPLAS [NCAPD2_Y1325]", "phosphorylation enrichment": 0.423}, {"sequence": "EREYKYDAHNY [OAT_Y50_G51D]", "phosphorylation enrichment": 0.559}, {"sequence": "PHMQTYEVDLN [SDHB_Y61]", "phosphorylation enrichment": 1.02}, {"sequence": "EILTQYEAMAS [GFAP_Y242_R239L]", "phosphorylation enrichment": 0.514}, {"sequence": "LITSVYGCSRQ [TMPRSS6_Y290]", "phosphorylation enrichment": 0.716}, {"sequence": "GRVYVYHLSEQ [ITGAE_Y551_R552H]", "phosphorylation enrichment": 0.531}, {"sequence": "CGTPDYIDPEI [PRKCG_Y521_A523D]", "phosphorylation enrichment": 0.531}, {"sequence": "SKGFAYVHFDS [PABPC5_Y149_YF]", "phosphorylation enrichment": 0.408}, {"sequence": "QLCVSYPGGFT [PROS1_Y259_N258S_YF]", "phosphorylation enrichment": 0.775}, {"sequence": "WRPFGYPCRRR [BCS1L_Y181_R183C]", "phosphorylation enrichment": 0.458}, {"sequence": "SGDDGYAKDAQ [TENM4_Y1530_K1535Q]", "phosphorylation enrichment": 0.557}, {"sequence": "ALWFIYSHTRS [ENG_Y614_YF]", "phosphorylation enrichment": 0.45}, {"sequence": "SGADSYEMEED [EGFR_Y316_C311S]", "phosphorylation enrichment": 0.52}, {"sequence": "NFFDTYIKTCL [IQGAP2_Y1445_YF]", "phosphorylation enrichment": 0.555}, {"sequence": "PYYTSYPPSPD [GDAP2_Y491]", "phosphorylation enrichment": 0.676}, {"sequence": "CTTIRYNFMCN [TP53_Y234_H233R_YF]", "phosphorylation enrichment": 0.501}, {"sequence": "LAAAGYDVEKN [H1-3_Y72]", "phosphorylation enrichment": 0.436}, {"sequence": "AKNKDYMSFIR [GNE_Y197_I200F]", "phosphorylation enrichment": 0.34}, {"sequence": "SLIERYEPSET [PLCD1_Y258]", "phosphorylation enrichment": 0.574}, {"sequence": "KSEFAYEIFDK [MYOM2_Y1024_L1022F]", "phosphorylation enrichment": 0.543}, {"sequence": "ELSDGYWVVSN [TPP1_Y459_A454E]", "phosphorylation enrichment": 0.528}, {"sequence": "DVCKNYAKAKD [ALB_Y343_E345K]", "phosphorylation enrichment": 0.473}, {"sequence": "GDEAIYATVAG [NRTKtide_2018]", "phosphorylation enrichment": 13.4}, {"sequence": "RFLRGYRQFAF [HLA-A_Y137_D140Y_YF]", "phosphorylation enrichment": 0.678}]}, {"target": "Jak2 (UniProt O60674)", "sequence (O60674 whole entry, looked up)": "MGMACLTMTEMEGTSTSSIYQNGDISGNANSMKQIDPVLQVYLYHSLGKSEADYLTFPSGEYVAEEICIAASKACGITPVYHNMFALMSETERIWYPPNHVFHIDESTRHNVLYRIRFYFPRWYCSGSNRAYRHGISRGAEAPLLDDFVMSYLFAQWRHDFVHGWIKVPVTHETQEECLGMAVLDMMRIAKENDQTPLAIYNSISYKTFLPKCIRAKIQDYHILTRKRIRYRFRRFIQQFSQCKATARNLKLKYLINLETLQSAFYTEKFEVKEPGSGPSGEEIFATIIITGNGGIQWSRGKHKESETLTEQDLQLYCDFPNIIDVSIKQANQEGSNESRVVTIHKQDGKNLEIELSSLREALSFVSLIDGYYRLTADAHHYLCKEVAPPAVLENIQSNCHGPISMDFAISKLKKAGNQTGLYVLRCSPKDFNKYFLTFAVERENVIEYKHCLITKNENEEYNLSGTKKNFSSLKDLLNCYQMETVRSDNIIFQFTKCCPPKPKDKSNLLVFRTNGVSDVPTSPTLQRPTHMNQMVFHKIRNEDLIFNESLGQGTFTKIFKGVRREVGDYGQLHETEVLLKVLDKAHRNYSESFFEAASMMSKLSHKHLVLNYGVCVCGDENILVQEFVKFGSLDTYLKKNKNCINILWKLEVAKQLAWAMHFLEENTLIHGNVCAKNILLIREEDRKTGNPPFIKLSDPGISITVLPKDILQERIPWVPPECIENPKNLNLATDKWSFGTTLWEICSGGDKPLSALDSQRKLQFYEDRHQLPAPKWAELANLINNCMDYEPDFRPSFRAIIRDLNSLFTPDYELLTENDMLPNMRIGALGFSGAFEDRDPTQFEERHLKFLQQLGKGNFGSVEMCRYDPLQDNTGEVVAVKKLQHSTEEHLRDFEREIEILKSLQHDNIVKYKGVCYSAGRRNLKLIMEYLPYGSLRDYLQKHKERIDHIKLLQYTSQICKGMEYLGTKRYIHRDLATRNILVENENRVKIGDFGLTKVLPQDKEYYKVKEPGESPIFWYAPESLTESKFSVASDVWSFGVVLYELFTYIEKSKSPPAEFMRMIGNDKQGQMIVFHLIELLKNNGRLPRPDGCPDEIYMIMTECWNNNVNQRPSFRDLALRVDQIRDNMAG", "test": "phosphorylation enrichment, bacterial display (enrichment ratio); higher = better substrate or ligand; peptides without Tyr show the background", "values": [{"sequence": "FSDPDYLAAVD [GLB1_Y154_S149F]", "phosphorylation enrichment": 0.928}, {"sequence": "TLRETYGEMAD [ALB_Y108]", "phosphorylation enrichment": 0.982}, {"sequence": "RSRSSYTHSLN [MYCT1_Y116_G119S]", "phosphorylation enrichment": 0.948}, {"sequence": "DQLVKHGVNPG [TMPO_Y127_Y127H]", "phosphorylation enrichment": 0.479}, {"sequence": "LVPPRYARSEI [PKP2_Y194]", "phosphorylation enrichment": 0.495}, {"sequence": "STGSRYQPLAS [NCAPD2_Y1325]", "phosphorylation enrichment": 0.596}, {"sequence": "EREYKYDAHNY [OAT_Y50_G51D]", "phosphorylation enrichment": 0.8}, {"sequence": "PHMQTYEVDLN [SDHB_Y61]", "phosphorylation enrichment": 1.12}, {"sequence": "EILTQYEAMAS [GFAP_Y242_R239L]", "phosphorylation enrichment": 0.846}, {"sequence": "LITSVYGCSRQ [TMPRSS6_Y290]", "phosphorylation enrichment": 1.24}, {"sequence": "GRVYVYHLSEQ [ITGAE_Y551_R552H]", "phosphorylation enrichment": 0.994}, {"sequence": "CGTPDYIDPEI [PRKCG_Y521_A523D]", "phosphorylation enrichment": 1.31}, {"sequence": "SKGFAYVHFDS [PABPC5_Y149_YF]", "phosphorylation enrichment": 0.832}, {"sequence": "QLCVSYPGGFT [PROS1_Y259_N258S_YF]", "phosphorylation enrichment": 1.45}, {"sequence": "WRPFGYPCRRR [BCS1L_Y181_R183C]", "phosphorylation enrichment": 0.394}, {"sequence": "SGDDGYAKDAQ [TENM4_Y1530_K1535Q]", "phosphorylation enrichment": 0.832}, {"sequence": "ALWFIYSHTRS [ENG_Y614_YF]", "phosphorylation enrichment": 0.956}, {"sequence": "SGADSYEMEED [EGFR_Y316_C311S]", "phosphorylation enrichment": 1.12}, {"sequence": "NFFDTYIKTCL [IQGAP2_Y1445_YF]", "phosphorylation enrichment": 1.34}, {"sequence": "PYYTSYPPSPD [GDAP2_Y491]", "phosphorylation enrichment": 3.58}, {"sequence": "CTTIRYNFMCN [TP53_Y234_H233R_YF]", "phosphorylation enrichment": 0.833}, {"sequence": "LAAAGYDVEKN [H1-3_Y72]", "phosphorylation enrichment": 0.711}, {"sequence": "AKNKDYMSFIR [GNE_Y197_I200F]", "phosphorylation enrichment": 0.647}, {"sequence": "SLIERYEPSET [PLCD1_Y258]", "phosphorylation enrichment": 0.966}, {"sequence": "KSEFAYEIFDK [MYOM2_Y1024_L1022F]", "phosphorylation enrichment": 1.01}, {"sequence": "ELSDGYWVVSN [TPP1_Y459_A454E]", "phosphorylation enrichment": 1.63}, {"sequence": "DVCKNYAKAKD [ALB_Y343_E345K]", "phosphorylation enrichment": 0.607}, {"sequence": "GDEAIYATVAG [NRTKtide_2018]", "phosphorylation enrichment": 0.803}, {"sequence": "RFLRGYRQFAF [HLA-A_Y137_D140Y_YF]", "phosphorylation enrichment": 0.661}]}]}
